The labels stand for the following.
B1: AP-2 complex subunit mu (Rattus norvegicus (Rat)), P84092 (parent)
chain: MIGGLFIYNHKGEVLISRVYRDDIGRNAVDAFRVNVIHARQQVRSPVTNIARTSFFHVKRSNIWLAAVTKQNVNAAMVFEFLYKMCDVMAAYFGKISEENIKNNFVLIYELLDEILDFGYPQNSETGALKTFITQQGIKSQHQTKEEQSQITSQVTGQIGWRREGIKYRRNELFLDVLESVNLLMSPQGQVLSAHVSGRVVMKSYLSGMPECKFGMNDKIVIEKQGKGTADETSKSGKQSIAIDDCTFHQCVRLSKFDSERSISFIPPDGEFELMRYRTTKDIILPFRVIPLVREVGRTKLEVKVVIKSNFKPSLLAQKIEVRIPTPLNTSGVQVICMKGKAKYKASENAIVWKIKRMAGMKESQISAEIELLPTNDKKKWARPPISMNFEVPFAPSGLKVRYLKVFEPKLNYSDHDVIKWVRYIGRSGIYETRC

Variants of B1 are the subject of the first experiment. The note with it: with ap2b1_human AP2B1, P63010.
Sequence of ap2b1_human AP2B1, P63010 (P63010 whole entry): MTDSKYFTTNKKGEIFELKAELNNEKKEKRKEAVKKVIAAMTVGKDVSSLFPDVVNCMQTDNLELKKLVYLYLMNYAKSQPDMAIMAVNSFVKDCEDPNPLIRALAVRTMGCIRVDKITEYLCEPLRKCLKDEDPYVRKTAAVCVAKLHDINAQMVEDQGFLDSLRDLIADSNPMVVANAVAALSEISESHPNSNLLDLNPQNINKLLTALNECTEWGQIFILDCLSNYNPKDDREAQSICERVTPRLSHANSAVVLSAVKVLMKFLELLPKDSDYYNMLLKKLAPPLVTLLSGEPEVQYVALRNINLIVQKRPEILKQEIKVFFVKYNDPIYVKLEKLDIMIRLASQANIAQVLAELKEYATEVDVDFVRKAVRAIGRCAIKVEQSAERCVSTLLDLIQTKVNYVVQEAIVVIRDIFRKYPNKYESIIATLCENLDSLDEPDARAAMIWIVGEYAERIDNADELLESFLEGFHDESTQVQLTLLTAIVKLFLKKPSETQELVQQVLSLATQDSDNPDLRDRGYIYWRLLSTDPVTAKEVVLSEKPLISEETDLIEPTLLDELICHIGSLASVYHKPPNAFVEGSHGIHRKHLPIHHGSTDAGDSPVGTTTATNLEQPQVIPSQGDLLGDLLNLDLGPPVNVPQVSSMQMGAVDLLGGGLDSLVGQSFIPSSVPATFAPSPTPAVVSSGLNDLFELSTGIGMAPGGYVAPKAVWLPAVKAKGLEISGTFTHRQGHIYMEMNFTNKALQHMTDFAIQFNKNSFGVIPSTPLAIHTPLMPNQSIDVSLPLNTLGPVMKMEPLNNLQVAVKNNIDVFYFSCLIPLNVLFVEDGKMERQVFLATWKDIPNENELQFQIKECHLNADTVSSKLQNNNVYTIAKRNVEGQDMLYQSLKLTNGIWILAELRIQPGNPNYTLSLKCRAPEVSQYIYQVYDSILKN
As to MIGGLFIYNHKGEVLISRVYRDDIGRNAVDAFRVNVIHARQQVRSPVTNIARTSFFHVKRSNIWLAAVTKQNVNAAMVFEFLYKMCDVMAAYFGKASEENIKNNFVLIYELLDEILDFGYPQNSETGALKTFITQQGIKSQHQTKEEQSQITSQVTGQIGWRREGIKYRRNELFLDVLESVNLLMSPQGQVLSAHVSGRVVMKSYLSGMPECKFGMNDKIVIEKQGKGTADETSKSGKQSIAIDDCTFHQCVRLSKFDSERSISFIPPDGEFELMRYRTTKDIILPFRVIPLVREVGRTKLEVKVVIKSNFKPSLLAQKIEVRIPTPLNTSGVQVICMKGKAKYKASENAIVWKIKRMAGMKESQISAEIELLPTNDKKKWARPPISMNFEVPFAPSGLKVRYLKVFEPKLNYSDHDVIKWVRYIGRSGIYETRC [I96A], the “effect of a mutation on the interaction” value is on record as “decreasing interaction”.
Same read-out and setting: as for MIGGLFIYNHKGEVLISRVYRDDIGRNAVDAFRVNVIHARQQVRSPVTNIARTSFFHVKRSNIWLAAVTKQNVNAAMVFEFAYKMCDVMAAYFGKISEENIKNNFVLIYELLDEILDFGYPQNSETGALKTFITQQGIKSQHQTKEEQSQITSQVTGQIGWRREGIKYRRNELFLDVLESVNLLMSPQGQVLSAHVSGRVVMKSYLSGMPECKFGMNDKIVIEKQGKGTADETSKSGKQSIAIDDCTFHQCVRLSKFDSERSISFIPPDGEFELMRYRTTKDIILPFRVIPLVREVGRTKLEVKVVIKSNFKPSLLAQKIEVRIPTPLNTSGVQVICMKGKAKYKASENAIVWKIKRMAGMKESQISAEIELLPTNDKKKWARPPISMNFEVPFAPSGLKVRYLKVFEPKLNYSDHDVIKWVRYIGRSGIYETRC [L82A], the entry is “decreasing interaction”; as for MIGGLFIYNHKGEVLISRVYRDDIGRNAVDAFRVNVIHARQQVRSPVTNIARTSFFHVKRSNIWLAAVTKQNVNAAMVFEFLAKMCDVMAAYFGKISEENIKNNFVLIYELLDEILDFGYPQNSETGALKTFITQQGIKSQHQTKEEQSQITSQVTGQIGWRREGIKYRRNELFLDVLESVNLLMSPQGQVLSAHVSGRVVMKSYLSGMPECKFGMNDKIVIEKQGKGTADETSKSGKQSIAIDDCTFHQCVRLSKFDSERSISFIPPDGEFELMRYRTTKDIILPFRVIPLVREVGRTKLEVKVVIKSNFKPSLLAQKIEVRIPTPLNTSGVQVICMKGKAKYKASENAIVWKIKRMAGMKESQISAEIELLPTNDKKKWARPPISMNFEVPFAPSGLKVRYLKVFEPKLNYSDHDVIKWVRYIGRSGIYETRC [Y83A], “decreasing interaction”.

In the next experiment the parent is B1. The note with it: with tgon3_rat Ttgn1, P19814.
Sequence of tgon3_rat Ttgn1, P19814 (P19814 whole entry): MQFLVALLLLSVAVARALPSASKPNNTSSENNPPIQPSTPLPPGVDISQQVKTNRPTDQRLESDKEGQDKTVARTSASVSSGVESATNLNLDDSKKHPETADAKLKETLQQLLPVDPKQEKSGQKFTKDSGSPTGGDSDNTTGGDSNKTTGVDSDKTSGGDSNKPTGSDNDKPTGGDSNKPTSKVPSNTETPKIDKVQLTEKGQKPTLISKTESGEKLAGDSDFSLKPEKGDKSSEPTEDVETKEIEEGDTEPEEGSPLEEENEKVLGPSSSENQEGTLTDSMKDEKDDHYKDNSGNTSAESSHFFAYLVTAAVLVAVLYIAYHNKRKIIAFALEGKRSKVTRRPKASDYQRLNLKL
In the case of MIGGLFIYNHKGEVLISRVYRDDIGRNAVDAFRVNVIHARQQVRSPVTNIARTSFFHVKRSNIWLAAVTKQNVNAAMVFEFLYKMCDVMAAYFGKISEENIKNNFVLIYELLDEILDFGYPQNSETGALKTFITQQGIKSQHQTKEEQSQITSQVTGQIGWRREGIKYRRNELFLDVLESVNLLMSPQGQVLSAHVSGRVVMKSYLSGMPECKFGMNDKIVIEKQGKGTADETSKSGKQSIAIDDCTFHQCVRLSKFDSERSISFIPPAGEFELMRYRTTKDIILPFRVIPLVREVGRTKLEVKVVIKSNFKPSLLAQKIEVRIPTPLNTSGVQVICMKGKAKYKASENAIVWKIKRMAGMKESQISAEIELLPTNDKKKWARPPISMNFEVPFAPSGLKVRYLKVFEPKLNYSDHDVIKWVRYIGRSGIYETRC [D269A], the “effect of a mutation on the interaction” value is given as “decreasing interaction”.
On the same count and under the same terms, as for MIGGLFIYNHKGEVLISRVYRDDIGRNAVDAFRVNVIHARQQVRSPVTNIARTSFFHVKRSNIWLAAVTKQNVNAAMVFEFLYKMCDVMAAYFGKISEENIKNNFVLIYELLDEILDFGYPQNSETGALKTFITQQGIKSQHQTKEEQSQITSQVTGQIGWRREGIKYRRNELFLDVLESVNLLMSPQGQVLSAHVSGRVVMKSYLSGMPECKFGMNDKIVIEKQGKGTADETSKSGKQSIAIDDCTFHQCVRLSKFDSERSISFIPPDAEFELMRYRTTKDIILPFRVIPLVREVGRTKLEVKVVIKSNFKPSLLAQKIEVRIPTPLNTSGVQVICMKGKAKYKASENAIVWKIKRMAGMKESQISAEIELLPTNDKKKWARPPISMNFEVPFAPSGLKVRYLKVFEPKLNYSDHDVIKWVRYIGRSGIYETRC [G270A], the entry is “decreasing interaction”.
On the same count and under the same terms, as for MIGGLFIYNHKGEVLISRVYRDDIGRNAVDAFRVNVIHARQQVRSPVTNIARTSFFHVKRSNIWLAAVTKQNVNAAMVFEFLYKMCDVMAAYFGKISEENIKNNFVLIYELLDEILDFGYPQNSETGALKTFITQQGIKSQHQTKEEQSQITSQVTGQIGWRREGIKYRRNELFLDVLESVNLLMSPQGQVLSAHVSGRVVMKSYLSGAPECKFGMNDKIVIEKQGKGTADETSKSGKQSIAIDDCTFHQCVRLSKFDSERSISFIPPDGEFELMRYRTTKDIILPFRVIPLVREVGRTKLEVKVVIKSNFKPSLLAQKIEVRIPTPLNTSGVQVICMKGKAKYKASENAIVWKIKRMAGMKESQISAEIELLPTNDKKKWARPPISMNFEVPFAPSGLKVRYLKVFEPKLNYSDHDVIKWVRYIGRSGIYETRC [M209A], the entry is “decreasing interaction”; as for MIGGLFIYNHKGEVLISRVYRDDIGRNAVDAFRVNVIHARQQVRSPVTNIARTSFFHVKRSNIWLAAVTKQNVNAAMVFEFLYKMCDVMAAYFGKISEENIKNNFVLIYELLDEILDFGYPQNSETGALKTFITQQGIKSQHQTKEEQSQITSQVTGQIGWRREGIKYRRNELFLDVLESVNLLMSPQGQVLSAHVSGRVVMKSYLSGMPECKFGMNDKIVIEKQGKGTADETSKSGKQSIAIDDCTFHQCVRLSKFDSERSISAIPPDGEFELMRYRTTKDIILPFRVIPLVREVGRTKLEVKVVIKSNFKPSLLAQKIEVRIPTPLNTSGVQVICMKGKAKYKASENAIVWKIKRMAGMKESQISAEIELLPTNDKKKWARPPISMNFEVPFAPSGLKVRYLKVFEPKLNYSDHDVIKWVRYIGRSGIYETRC [F265A], “decreasing interaction”.
